Source: US20230416396A1 (Regeneron, published 2023)

Assays:
[1] = molecular target: T1, human 4-1BB expressed with a C-terminal murine Fc tag (human, UniProt Q07011 24-186); test: SPR Biacore 4000, h4-1BB.mFc captured by anti-mouse Fc, antibody as analyte, 25 C
T1 construct: also called h4-1BB.mFc; REGN3585; not shown: C-terminal murine Fc tag
Description: Equilibrium dissociation constants (KD values) for human 4-1BB expressed with a C-terminal murine Fc tag (h4-1BB.mFc, REGN3585) binding to purified anti-CD38×4-1BB 1+2 antibodies were determined using a real-time surface plasmon resonance biosensor using a Biacore 4000 instrument. […] All Biacore binding studies were performed in a buffer composed of 0.01M HEPES pH 7.4, 0.15M NaCl, 3 mM EDTA, 0.05% v/v Surfactant P20 (HBS-EP running buffer). Different concentrations of CD38×4-1BB 1+2 constructs prepared in HBS-EP running buffer (ranging from 100 to 6.25 nM in 4-fold serial dilutions) were injected over the h4-1BB.mFc (REGN3585) captured surface at a flow rate of 30 μL/minute. Antibody-reagent association was monitored for 5 minutes while dissociation in HBS-EP running buffer was monitored for 10 minutes. At the end of each cycle, the h4-1BB.mFc capture surface was regenerated using a 40 sec injection of 10 mM glycine, pH 1.5. All binding kinetics experiments were performed at 25° C.
(§1) Kinetic association (kₐ) and dissociation (kd) rate constants were determined by fitting the real-time sensorgrams to a 1:1 binding model using Cytiva Insight curve fitting software. Binding dissociation equilibrium constants (KD) and dissociative half-lives (t/2) were calculated from the kinetic rate constants as: […]

human 4-1BB on cells [2] = molecular target: T2, human 4-1BB on cells (human, UniProt Q07011 24-255); test: cell-based or functional assay
T2 sequence (Q07011 24-255): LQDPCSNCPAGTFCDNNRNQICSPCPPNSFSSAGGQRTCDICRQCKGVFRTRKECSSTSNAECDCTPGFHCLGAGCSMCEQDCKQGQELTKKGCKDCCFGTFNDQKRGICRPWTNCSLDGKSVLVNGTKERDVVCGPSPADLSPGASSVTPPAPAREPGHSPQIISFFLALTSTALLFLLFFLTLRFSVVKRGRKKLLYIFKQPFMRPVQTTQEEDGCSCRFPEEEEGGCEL

human 4-1BB on cells [3] = molecular target: T2, human 4-1BB on cells; test: cell-based or functional assay; remark: listed apart in the source
[4] = molecular target: T3, human CD38 endogenously expressed on MOLP8 cells (human, UniProt P28907 1-300); test: flow cytometry on MOLP8 cells (endogenous hCD38), APC anti-human secondary
T3 construct: whole, on cells; also called hCD38
Description: (§2) The ability of the multispecific antigen binding molecules to bind cells was assessed using flow cytometry. Cell lines were chosen to determine the ability of both the anti-CD38 and anti-4-1BB arms to bind their targets. […] Binding was detected by using a labeled secondary antibody and measuring fluorescence on a flow cytometer.
HEK293 cells were lifted with trypsin, washed and resuspend in stain buffer (2% FBS in PBS). MOLP8 cells were washed and resuspended in stain buffer. Cells were added to wells of a 96 well V-bottom plate (3×10⁵ cells/well). A 1:4, 9-point, dose titration of test antibodies was diluted in stain buffer and added to cells to a final concentration ranging from 610 fM to 10 nM (a “no antibody” control was included as the ninth point (153fM), labeled as “secondary only”). Cells and antibodies were incubated for 30 min on ice and then washed in stain buffer. Cells were resuspended in 2 ug/ml allophycocyanin (APC) conjugated goat-anti human secondary antibody and incubated for 30 min on ice. Cells were then washed and resuspended in viability dye (according to the manufacturer's protocol) and incubated for 30 min on ice. Cells were then washed with stain buffer and resuspended in 2% PFA for 30 min on ice. After washing, cells were filtered and analyzed by flow cytometry to determine the geometric mean fluorescence intensity (gMFI), which was subsequently plotted using GraphPad Prism software. EC₅₀ values of the antibodies were determined from a 4-parameter logistic equation over a 9-point dose response curve (including secondary only control, representing the ninth point).

human 4-1BB on cells [5] = molecular target: T2, human 4-1BB on cells; test: cell-based or functional assay; remark: listed apart in the source
[6] = molecular target: T4, human 4-1BB expressed with a C-terminal myc-myc-hexahistidine tag (human, UniProt Q07011 24-186); test: SPR Biacore 8k, antibody captured by anti-human Fc, h4-1BB.mmH as analyte, 25 C
T4 construct: also called h4-1BB.mmH; REGN3584; not shown: C-terminal myc-myc-hexahistidine tag
T4 sequence (Q07011 24-186 limits assumed): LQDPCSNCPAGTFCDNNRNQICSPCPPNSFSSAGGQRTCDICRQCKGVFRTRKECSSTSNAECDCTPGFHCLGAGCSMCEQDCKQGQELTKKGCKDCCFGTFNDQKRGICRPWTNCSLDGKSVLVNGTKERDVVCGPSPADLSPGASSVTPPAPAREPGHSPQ
Description: (§3) Equilibrium dissociation constants (KD values) for human 4-1BB expressed with a C-terminal myc-myc-hexahistidine tag (h4-1BB.mmH, REGN3584) or human 4-1BB expressed with a C-terminal murine Fc tag (h4-1BB.mFc, REGN3585) binding to purified anti-CD38×4-1BB 1+2 antibodies were determined using a real-time surface plasmon resonance biosensor using a Biacore 8k instrument. The CM5 Biacore sensor surface was derivatized by amine coupling with a monoclonal mouse anti-human Fc antibody (REGN2567). All Biacore binding studies were performed in a buffer composed of 0.01M HEPES pH 7.4, 0.15M NaCl, 3 mM EDTA, 0.05% v/v Surfactant P20 (HBS-EP running buffer). […] Antibody-reagent association was monitored for 5 minutes while dissociation in HBS-EP running buffer was monitored for 10 minutes. At the end of each cycle, the anti-CD38×4-1BB 1+2 antibody capture surface was regenerated using a 10 second injection of 20 mM phosphoric acid. All binding kinetics experiments were performed at 25° C.
as §1

[7] = molecular target: T1, human 4-1BB expressed with a C-terminal …; test: SPR Biacore 8k, antibody captured by anti-human Fc, h4-1BB.mFc as analyte, 25 C
Description: as §3, §1

human 4-1BB on cells [8] = molecular target: T2, human 4-1BB on cells; test: cell-based or functional assay; remark: listed apart in the source
human 4-1BB on cells [9] = molecular target: T2, human 4-1BB on cells; test: flow cytometry on HEK293/h4-1BB cells, APC anti-human secondary
Description: as §2
HEK293 and HEK293/4-1BB cells were lifted with trypsin, washed and resuspended in stain buffer (2% FBS in PBS) and added to wells of a 96 well V-bottom plate (3×10⁵ cells/well). A 1:5, 9-point, dose titration of test antibodies was diluted in stain buffer and added to cells to a final concentration ranging from 1.3 pM to 100 nM (a “no antibody” control was included as the ninth point ([…]) labeled as “secondary only”). Cells and antibodies were incubated for 30 min on ice and then washed in stain buffer. Cells were resuspended in 2 ug/ml allophycocyanin (APC) conjugated goat-anti human secondary antibody and incubated for 30 min on ice. Cells were then washed and resuspended in viability dye (according to the manufacturer's protocol) and incubated for 30 min on ice. Cells were then washed with stain buffer and resuspended in 2% PFA for 30 min on ice. After washing, cells were filtered and analyzed by flow cytometry to determine the geometric mean fluorescence intensity (gMFI), which was subsequently plotted using GraphPad Prism software. EC₅₀ values of the antibodies were determined from a 4-parameter logistic equation over a 9-point dose response curve (including secondary only control).

T1 sequence (Q07011 24-186 limits assumed): as above

100 nM Ab Bind (RU) [1]: 266 RU | Kd [1]: 0.797 nM | koff [1]: 0.000169 s⁻¹ | kon [1]: 212000 M⁻¹ s⁻¹ | t½ [1]: 1.14 h | EC50 of IL-2 release, T cells + NALM6 + Cemiplimab (human 4-1BB on cells [2]): 0.155 nM | EC50 of IL-2 release, T cells + NALM6 + IgG4P (human 4-1BB on cells [2]): 0.179 nM | EC50 of IL-2 release, T cells + NALM6/PD-L1 + Cemiplimab (human 4-1BB on cells [2]): 0.283 nM | EC50 of IL-2 release, T cells + NALM6/PD-L1 + IgG4P (human 4-1BB on cells [2]): 0.228 nM | EC50 of luciferase activity, HEK293/NFkB-Luc/h4-1BB reporter + OPM2 (human 4-1BB on cells [3]): 0.0989 nM | MAX luciferase activity, HEK293/NFkB-Luc/h4-1BB reporter + HEK293/CD20 (human 4-1BB on cells [3]): 1.5e+06 RLU | MAX luciferase activity, HEK293/NFkB-Luc/h4-1BB reporter + HEK293/CD20/CD38 (human 4-1BB on cells [3]): 2.3e+06 RLU | MAX luciferase activity, HEK293/NFkB-Luc/h4-1BB reporter + MOLP-8 (human 4-1BB on cells [3]): 2.4e+06 RLU | MAX luciferase activity, HEK293/NFkB-Luc/h4-1BB reporter + OPM2 (human 4-1BB on cells [3]): 2e+06 RLU | MAX gMFI [4]: 140000 gMFI | EC50 of IL-2 release, T cells + HEK293/CD20/CD38 + REGN1979 (human 4-1BB on cells [5]): 0.014 nM | EC50 of IL-2 release, T cells + MOLP-8 + REGN5458 (human 4-1BB on cells [5]): 0.0317 nM | MAX IL-2 release, T cells + HEK293/CD20 + REGN1979 (human 4-1BB on cells [5]): 184 pg/mL | MAX IL-2 release, T cells + HEK293/CD20/CD38 + IsoC (human 4-1BB on cells [5]): 10 pg/mL | MAX IL-2 release, T cells + HEK293/CD20/CD38 + REGN1979 (human 4-1BB on cells [5]): 2720 pg/mL | MAX IL-2 release, T cells + MOLP-8 + IsoC (human 4-1BB on cells [5]): 288 pg/mL | MAX IL-2 release, T cells + MOLP-8 + REGN5458 (human 4-1BB on cells [5]): 553 pg/mL | 100 nM h4-1BB.mmH Bind (RU) [6]: 41.9 RU | Kd [6]: 20.4 nM | koff [6]: 0.00535 s⁻¹ | kon [6]: 262000 M⁻¹ s⁻¹ | t½ [6]: 2.2 min | 100 nM h4-1BB.mFc Bind (RU) [7]: 152 RU | Kd [7]: 1.2 nM | koff [7]: 0.000122 s⁻¹ | kon [7]: 102000 M⁻¹ s⁻¹ | t½ [7]: 1.58 h | EC50 of IFNγ release, T cells + NALM-6 + Cemiplimab (human 4-1BB on cells [8]): 0.156 nM | EC50 (human 4-1BB on cells [9]): 0.997 nM | MAX gMFI (human 4-1BB on cells [9]): 1e+06 gMFI
B1: REGN7650 (bispecific antibody, human IgG4 S228P, kappa)
heavy 1: EVQLVESGGGLVQPGGSLRLPCAASGFTFSSYAMSWVRQAPGKGLEWVADISGSGGDTYYVDSVKGRFTISRDNSKNTLYLQMNSLRIEDTAVYYCAKGRWHWNYEGFDIWGQGTMVTVSSASTKGPSVFPLAPCSRSTSESTAALGCLVKDYFPEPVTVSWNSGALTSGVHTFPAVLQSSGLYSLSSVVTVPSSSLGTKTYTCNVDHKPSNTKVDKRVESKYGPPGGGGSGGGGSGGGGSQVQLVESGGDVVQPGRSLRLSCTASGFTFSSFGMHWVRQAPGKGLEWVTFLSYDGSYKYYADSVKGRFTISRDNSKNTLYLQMNSLRAEDTAIFYCARDWLDYWGQGTLVTVSSASTKGPSVFPLAPCSRSTSESTAALGCLVKDYFPEPVTVSWNSGALTSGVHTFPAVLQSSGLYSLSSVVTVPSSSLGTKTYTCNVDHKPSNTKVDKRVESKYGPPCPPCPAPPVAGPSVFLFPPKPKDTLMISRTPEVTCVVVDVSQEDPEVQFNWYVDGVEVHNAKTKPREEQFNSTYRVVSVLTVLHQDWLNGKEYKCKVSNKGLPSSIEKTISKAKGQPREPQVYTLPPSQEEMTKNQVSLTCLVKGFYPSDIAVEWESNGQPENNYKTTPPVLDSDGSFFLYSRLTVDKSRWQEGNVFSCSVMHEALHNRFTQKSLSLSPGK
heavy 2: EVQLVESGGGLVQPGRSLRLSCAASGFTFDDYAMHWVRQAPGKGLEWVSGISWKSDNIGYADSVKGRFTISRDNAKNSLYLQMNSLRAEDTALYYCAKALGGWKFDYYYGMDVWGQGTTVTVSSASTKGPSVFPLAPCSRSTSESTAALGCLVKDYFPEPVTVSWNSGALTSGVHTFPAVLQSSGLYSLSSVVTVPSSSLGTKTYTCNVDHKPSNTKVDKRVESKYGPPCPPCPAPPVAGPSVFLFPPKPKDTLMISRTPEVTCVVVDVSQEDPEVQFNWYVDGVEVHNAKTKPREEQFNSTYRVVSVLTVLHQDWLNGKEYKCKVSNKGLPSSIEKTISKAKGQPREPQVYTLPPSQEEMTKNQVSLTCLVKGFYPSDIAVEWESNGQPENNYKTTPPVLDSDGSFFLYSRLTVDKSRWQEGNVFSCSVMHEALHNHYTQKSLSLSLGK
light: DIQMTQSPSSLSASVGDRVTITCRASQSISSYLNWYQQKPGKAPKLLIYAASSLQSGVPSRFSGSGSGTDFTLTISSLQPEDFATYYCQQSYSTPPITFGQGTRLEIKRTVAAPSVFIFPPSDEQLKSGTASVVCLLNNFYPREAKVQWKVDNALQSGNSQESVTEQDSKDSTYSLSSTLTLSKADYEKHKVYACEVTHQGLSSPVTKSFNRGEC
notes: 1+2 format, hIgG4P-PVA; also called CD38x4-1BB (1 + 2); 26812P2 x 25898P2 (IN) + 35321P2 (OUT)
